The values that follow come from publication doi:10.1101/2025.11.26.690658 (bioRxiv, 2025).

By stoichiometry N is commonly meant the number of molecules, sites or subunits per partner or assembly.

For data set [1], the target named is McsAZ2-McsB complex (heterotetramer of a McsB dimer and two McsAZ2) (Bacillus subtilis strain 168) (UniProt P37569). The data set is described as follows: cryo-EM structure.
Data set [2] concerns the target T1, McsB(R194A), the McsB chain of the McsAZ2(R115A)-McsB(R194A) mutant (Bacillus subtilis strain 168, UniProt P37570 1-363, R194A).
T1 sequence: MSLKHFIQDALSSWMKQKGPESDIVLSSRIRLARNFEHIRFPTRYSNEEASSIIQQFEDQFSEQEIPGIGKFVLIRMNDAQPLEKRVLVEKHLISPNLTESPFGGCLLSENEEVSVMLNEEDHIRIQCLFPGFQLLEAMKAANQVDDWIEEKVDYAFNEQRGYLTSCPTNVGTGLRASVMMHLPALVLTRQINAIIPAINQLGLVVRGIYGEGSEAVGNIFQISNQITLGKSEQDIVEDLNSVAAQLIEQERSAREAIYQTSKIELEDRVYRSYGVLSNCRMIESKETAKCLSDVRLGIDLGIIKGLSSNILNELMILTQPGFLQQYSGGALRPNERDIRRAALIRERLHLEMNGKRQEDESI
In words: SEC. (In gel filtration, larger molecules generally elute earlier.)

Data set [3] deals with the molecule itself. The data set is described as follows: cryo-EM structure.

In data set [1], “McsAZ2-McsB complex (heterotetramer of a McsB dimer and two McsAZ2) (from UniProt P37569;P37570)” yielded a stoichiometry N of 2 tetramers.

B1: CtsR (B. subtilis transcriptional repressor), full length (natural protein)
chain: MGHNISDIIEQYLKRVLDQNGKEILEIKRSEIADKFQCVPSQINYVINTRFTSERGYIVESKRGGGGYIRIIKIKMNNEVVLINNIISQINTHLSQAASDDIILRLLEDKVISEREAKMMVSVMDRSVLHIDLPERDELRARMMKAMLTSLKLK
Regarding B1, the binding result in data set [2] is listed as “binds”.

B2: CtsRCTD (C-terminal domain of CtsR, residues 75–154) (domain or fragment)
chain: KMNNEVVLINNIISQINTHLSQAASDDIILRLLEDKVISEREAKMMVSVMDRSVLHIDLPERDELRARMMKAMLTSLKLK
B2: in data set [2], the binding result was “binds”.

B3: McsB (B. subtilis protein-arginine kinase subunit), coexpressed with McsAZ2 (enzyme)
chain: MSLKHFIQDALSSWMKQKGPESDIVLSSRIRLARNFEHIRFPTRYSNEEASSIIQQFEDQFSEQEIPGIGKFVLIRMNDAQPLEKRVLVEKHLISPNLTESPFGGCLLSENEEVSVMLNEEDHIRIQCLFPGFQLLEAMKAANQVDDWIEEKVDYAFNEQRGYLTSCPTNVGTGLRASVMMHLPALVLTRQINRIIPAINQLGLVVRGIYGEGSEAVGNIFQISNQITLGKSEQDIVEDLNSVAAQLIEQERSAREAIYQTSKIELEDRVYRSYGVLSNCRMIESKETAKCLSDVRLGIDLGIIKGLSSNILNELMILTQPGFLQQYSGGALRPNERDIRRAALIRERLHLEMNGKRQEDESI
modifications: phosphoarginine at 194 and 333 (pR194, pR333)
As to B3, in data set [3], the “stoichiometry N” value was found to be 2.
